Measurements reported in paper PMC8287685, “Archaeal Orc1 protein interacts with T-rich single-stranded DNA”.

What was measured:
SSB [1] = target: T1, SSB (Escherichia coli, UniProt P0AGE0 1-178); test: SPR; no significant difference from R top; SPR: HBS-EP + 10 mM MgCl2, 2 mM ATP; BLI (room temperature) and MST: EDBS (25 mM Tris-HCl pH 8, 4% sucrose, 4 mM DTT, 80 ug/mL BSA, 10 mM Mg(OAc)2, 2 mM [truncated]); EMSA: 40 mM HEPES-KOH pH 8, 25 mM [truncated], 5% PAGE in TBE; conditions: chain copies: 4; label: 5' biotin (BLI, SPR); fluorescent (MST)
T1 sequence (P0AGE0 whole entry, the tested form may be a part): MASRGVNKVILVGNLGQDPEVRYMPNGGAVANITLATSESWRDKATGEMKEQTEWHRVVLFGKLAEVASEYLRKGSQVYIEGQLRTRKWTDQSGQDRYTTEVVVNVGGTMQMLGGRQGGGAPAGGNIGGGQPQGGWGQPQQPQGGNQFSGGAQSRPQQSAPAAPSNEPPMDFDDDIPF

ApOrc1 (Orc1-1) [2] = target: T2, ApOrc1 (Orc1-1) (Aeropyrum pernix, UniProt Q9YEV6 1-395); test: SPR; ATP, Mg2+; SPR: HBS-EP + 10 mM MgCl2, 2 mM ATP; BLI (room temperature) and MST: EDBS (25 mM Tris-HCl pH 8, 4% sucrose, 4 mM DTT, 80 ug/mL BSA, 10 mM Mg(OAc)2, 2 mM [truncated]); EMSA: 40 mM HEPES-KOH pH 8, 25 mM [truncated], 5% PAGE in TBE; conditions: protein: recombinant; label: 5' biotin (BLI, SPR); fluorescent (MST)
T2 sequence: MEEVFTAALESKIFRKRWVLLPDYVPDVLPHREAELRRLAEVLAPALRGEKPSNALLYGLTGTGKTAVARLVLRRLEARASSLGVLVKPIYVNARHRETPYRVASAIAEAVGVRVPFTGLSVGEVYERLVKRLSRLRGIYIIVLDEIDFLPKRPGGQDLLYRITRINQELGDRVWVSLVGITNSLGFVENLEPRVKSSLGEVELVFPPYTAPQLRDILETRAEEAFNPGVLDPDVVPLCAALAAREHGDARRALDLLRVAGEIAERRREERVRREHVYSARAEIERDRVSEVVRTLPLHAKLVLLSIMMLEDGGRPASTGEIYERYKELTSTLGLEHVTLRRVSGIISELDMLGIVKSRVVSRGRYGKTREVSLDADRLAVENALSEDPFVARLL

ApOrc1 (Orc1-1) [3] = target: T2, ApOrc1 (Orc1-1); test: as above; conditions: protein: recombinant; label: 5' biotin (BLI, SPR); fluorescent (MST); remark: listed apart in the source
SSB [4] = target: T1, SSB; test: SPR; no significant difference from R bottom; SPR: HBS-EP + 10 mM MgCl2, 2 mM ATP; BLI (room temperature) and MST: EDBS (25 mM Tris-HCl pH 8, 4% sucrose, 4 mM DTT, 80 ug/mL BSA, 10 mM Mg(OAc)2, 2 mM [truncated]); EMSA: 40 mM HEPES-KOH pH 8, 25 mM [truncated], 5% PAGE in TBE; conditions: chain copies: 4; label: 5' biotin (BLI, SPR); fluorescent (MST)
ApOrc1 (Orc1-1) [5] = target: T2, ApOrc1 (Orc1-1); test: BLI; among the highest; SPR: HBS-EP + 10 mM MgCl2, 2 mM ATP; BLI (room temperature) and MST: EDBS (25 mM Tris-HCl pH 8, 4% sucrose, 4 mM DTT, 80 ug/mL BSA, 10 mM Mg(OAc)2, 2 mM [truncated]); EMSA: 40 mM HEPES-KOH pH 8, 25 mM [truncated], 5% PAGE in TBE; conditions: protein: recombinant; label: 5' biotin
ApOrc1 (Orc1-1) [6] = target: T2, ApOrc1 (Orc1-1); test: SPR; highest response; SPR: HBS-EP + 10 mM MgCl2, 2 mM ATP; BLI (room temperature) and MST: EDBS (25 mM Tris-HCl pH 8, 4% sucrose, 4 mM DTT, 80 ug/mL BSA, 10 mM Mg(OAc)2, 2 mM [truncated]); EMSA: 40 mM HEPES-KOH pH 8, 25 mM [truncated], 5% PAGE in TBE; conditions: protein: recombinant; label: 5' biotin
ApOrc1 (Orc1-1) [7] = target: T2, ApOrc1 (Orc1-1); test: SPR; SPR: HBS-EP + 10 mM MgCl2, 2 mM ATP; BLI (room temperature) and MST: EDBS (25 mM Tris-HCl pH 8, 4% sucrose, 4 mM DTT, 80 ug/mL BSA, 10 mM Mg(OAc)2, 2 mM [truncated]); EMSA: 40 mM HEPES-KOH pH 8, 25 mM [truncated], 5% PAGE in TBE; conditions: protein: recombinant; label: Biotin-14-dCTP by TdT
ApOrc1 (Orc1-1) [8] = target: T2, ApOrc1 (Orc1-1); test: MST; SPR: HBS-EP + 10 mM MgCl2, 2 mM ATP; BLI (room temperature) and MST: EDBS (25 mM Tris-HCl pH 8, 4% sucrose, 4 mM DTT, 80 ug/mL BSA, 10 mM Mg(OAc)2, 2 mM [truncated]); EMSA: 40 mM HEPES-KOH pH 8, 25 mM [truncated], 5% PAGE in TBE; conditions: protein: recombinant; label: 5' Cy3
ApOrc1 (Orc1-1) [9] = target: T2, ApOrc1 (Orc1-1); test: BLI; higher than L top; SPR: HBS-EP + 10 mM MgCl2, 2 mM ATP; BLI (room temperature) and MST: EDBS (25 mM Tris-HCl pH 8, 4% sucrose, 4 mM DTT, 80 ug/mL BSA, 10 mM Mg(OAc)2, 2 mM [truncated]); EMSA: 40 mM HEPES-KOH pH 8, 25 mM [truncated], 5% PAGE in TBE; conditions: protein: recombinant; label: 5' biotin

B1: R bottom (ssDNA)
DNA: TCAGGCTGTGCAGTTCTGGATTATAGTGTGTCTTTGTTTGTTTCTAGCTTGATTTG
Q: Does B1 bind (SSB [1])?
A: Result: binds

Q: What about the binding signal (ApOrc1 (Orc1-1) [2]) of the same binder?
A: Its binding signal is ~3 fold SPR response vs R top.

B2: R top (ssDNA)
DNA: CAAATCAAGCTAGAAACAAACAAAGACACACTATAATCCAGAACTGCACAGCCTGA
Q: With B2 as the binder, how does the binding signal (ApOrc1 (Orc1-1) [3]) read?
A: The binding signal was ~0.33 fold SPR response vs R bottom (stated as R bottom 3 times higher).

Q: Does B2 bind (SSB [4])?
A: Result: binds

Q: Does TTTAAAACTGGGTTTTTGTATCATTATATTGGCAT (ssDNA) [L2 bottom] bind (ApOrc1 (Orc1-1) [5])?
A: Result: binds

Q: Does TGTGTCTTTGTTTGTTTCTAGCTTGATTTG (ssDNA) [R1 bottom] bind (ApOrc1 (Orc1-1) [6])?
A: Result: binds

B3: polyT(60) (ssDNA)
DNA: TTTTTTTTTTTTTTTTTTTTTTTTTTTTTTTTTTTTTTTTTTTTTTTTTTTTTTTTTTTT
Q: Does B3 bind (ApOrc1 (Orc1-1) [7])?
A: Result: binds

B4: polyA(60) (ssDNA)
DNA: AAAAAAAAAAAAAAAAAAAAAAAAAAAAAAAAAAAAAAAAAAAAAAAAAAAAAAAAAAAA
Q: Does B4 bind (ApOrc1 (Orc1-1) [7])?
A: Result: no binding

B5: polyT(70) (ssDNA)
DNA: TTTTTTTTTTTTTTTTTTTTTTTTTTTTTTTTTTTTTTTTTTTTTTTTTTTTTTTTTTTTTTTTTTTTTT
Q: Does B5 bind (ApOrc1 (Orc1-1) [8])?
A: Result: binds

B6: polyA(70) (ssDNA)
DNA: AAAAAAAAAAAAAAAAAAAAAAAAAAAAAAAAAAAAAAAAAAAAAAAAAAAAAAAAAAAAAAAAAAAAAA
Q: Does B6 bind (ApOrc1 (Orc1-1) [8])?
A: Result: no binding

B7: L bottom (ssDNA)
DNA: TTTAAAACTGGGTTTTTGTATCATTATATTGGCATTCTTCAAGAGCACTATTCGGGAGGAGTATACGCTTC
Q: Does B7 bind (ApOrc1 (Orc1-1) [9])?
A: Result: binds
